Data: the RNAGym collection of RNA variant scans (doi:10.7554/elife.80360)

B1: HDV Ribozyme (parent)
chain: GGCCGGCAUGGUCCCAGCCUCCUCGCUGGCGCCGGCUGGGCAACAUUCCGAGGGGACCGUCCCCUCGGUAAUGGCGAAUGGGACCCA

Variants of: B1
Test: self-cleavage, relative activity (ratio to wild type); higher = more cleavage; co-transcriptional

| Variant | self-cleavage |
| --- | --- |
| GGCCGGCAUGGUCCGAGCCUCCUCGCUGGCGCCGGCUGGGCAUCAUUCCGAGGGGACCGUCCCCUCGGUAAUGGCGAAUGGGACCCA [C15G A43U] | 0.123 |
| GGCCGGCAUGGUCCGAGCCUCCUCGCUGGGGCCGGCUGGGCAACAUUCCGAGGGGACCGUCCCCUCGGUAAUGGCGAAUGGGACCCA [C15G C30G] | 0.317 |
| GGCCGGCAUGGUCCGAGCCUCCUCGCUGGCGCCGGCUGGGCAACAUUCCGAGGGGACCGUCCCCUCGGUAGUGGCGAAUGGGACCCA [C15G A71G] | 0.727 |
| GGCCGGCAUGGUCCGAGCCUCCUCGCUCGCGCCGGCUGGGCAACAUUCCGAGGGGACCGUCCCCUCGGUAAUGGCGAAUGGGACCCA [C15G G28C] | 0.107 |
| GGCCGGCAUGGUCCAAGCCUCCUCGCUGGCGCCGGCUGGGCAACAUUCCGAGGGGACCGUCCCCUCGGUAAUGGCGAAAGGGACCCA [C15A U79A] | 0.519 |
| GGCCGGCAUGGUCCAAGCCUCCUCGCUGGCGCCGGCUGGGCAACAUUCCGAGGGGACCGUCCCCUCGGUAAUGGCGAAUGAGACCCA [C15A G81A] | 0.57 |
| GGCCGGCAUGGUCCAAGCCUCCUCGCCGGCGCCGGCUGGGCAACAUUCCGAGGGGACCGUCCCCUCGGUAAUGGCGAAUGGGACCCA [C15A U27C] | 0.277 |
| GGCCGGCAUGGUCCAAGCCUCCUCGCAGGCGCCGGCUGGGCAACAUUCCGAGGGGACCGUCCCCUCGGUAAUGGCGAAUGGGACCCA [C15A U27A] | 0.594 |
| GGCCGGCAUGGUCCGAGCCUCCUCGCUGGCGCCGGCUGGGCAACAUUGCGAGGGGACCGUCCCCUCGGUAAUGGCGAAUGGGACCCA [C15G C48G] | 0.739 |
| GGCCGGCAUGGUCCGAGCCUCCUUGCUGGCGCCGGCUGGGCAACAUUCCGAGGGGACCGUCCCCUCGGUAAUGGCGAAUGGGACCCA [C15G C24U] | 0.196 |
| GGCCGGCAUGGUCCGAGCCUCCUCGCUGGCGCCGGCUGGGCAACAUUCCGAGGGGACCGUCCCCUCGGUAAUGGCGAAUGGGUCCCA [C15G A83U] | 0.0791 |
| GGCCGGCAUGGUCCGAGCCUCCUCGCUGGCGCCGGCUGGGCAACAUUCCGAGGGGACCGUCCCCUCGGUAAUGGCGAAUGGGCCCCA [C15G A83C] | 0.249 |
| GGCCGGCAUGGUCCAAGCCUCCUCGCUGGCGCCGGCUGGGCAACAUUCCGAGGCGACCGUCCCCUCGGUAAUGGCGAAUGGGACCCA [C15A G54C] | 0.806 |
| GGCCGGCAUGGUCCGAGCCUCCUCGCUGGCGCCGGCUGGGCAACAUUCCGAGGGGAGCGUCCCCUCGGUAAUGGCGAAUGGGACCCA [C15G C57G] | 0.692 |
| GGCCGGCAUGGUCCGAGCCUCCUCGCUGGCGCCGGCUGGGCAACAUUCCGAGGGGAUCGUCCCCUCGGUAAUGGCGAAUGGGACCCA [C15G C57U] | 0.554 |
| GGCCGGCAUGGUCCGAGCCUCCUCGCUGGCGCCGGCUGGGCAACAUUCCGAGGGGACCGUCCCCUCGGUCAUGGCGAAUGGGACCCA [C15G A70C] | 0.776 |
| GGCCGGCAUGGUCCGAGCCUCCUCGCUGGCGCCGGCUGGGCAACAUUCCGAGGGGACCGUCCCCUCGGUAAUGGCGAAUGGGACCCC [C15G A87C] | 0.799 |
| GGCCGGCAUGGUCCGAGCCUCCUCGCUGGCGCCGGCUGGGCAACAUUCCGAGGGGACCGUACCCUCGGUAAUGGCGAAUGGGACCCA [C15G C61A] | 0.516 |
| GGCCGGCAUGGUCCGAGCCUCCUCGCUGGCGCCGGCUGGGCGACAUUCCGAGGGGACCGUCCCCUCGGUAAUGGCGAAUGGGACCCA [C15G A42G] | 0.166 |
| GGCCGGCAUGGUCCGAGCCUCCUCGCUGGCGCCGGCUGGGCUACAUUCCGAGGGGACCGUCCCCUCGGUAAUGGCGAAUGGGACCCA [C15G A42U] | 0.0504 |
| GGCCGGCAUGGUCCGAGCCUCCUCGCUGGCGCCGGCUGGGCCACAUUCCGAGGGGACCGUCCCCUCGGUAAUGGCGAAUGGGACCCA [C15G A42C] | 0.0755 |
| GGCCGGCAUGGUCCAAGCCUCCUCGCUGGCGCCGGCUGGGCAACAUUCCGAGGGGACCAUCCCCUCGGUAAUGGCGAAUGGGACCCA [C15A G59A] | 0.543 |

| Variant | self-cleavage |
| --- | --- |
| GGCCGGCAUGGUCCAAGCCUCCUCGCUGGCGCCGGCUGGGCAACAUUCCGAGGGGACCUUCCCCUCGGUAAUGGCGAAUGGGACCCA [C15A G59U] | 0.623 |
| GGCCGGCAUGGUCCGAGCCUCCUCGCUGACGCCGGCUGGGCAACAUUCCGAGGGGACCGUCCCCUCGGUAAUGGCGAAUGGGACCCA [C15G G29A] | 0.0339 |
| GGCCGGCAUGGUCCGAGCCUCCUCGCUGCCGCCGGCUGGGCAACAUUCCGAGGGGACCGUCCCCUCGGUAAUGGCGAAUGGGACCCA [C15G G29C] | 0 |
| GGCCGGCAUGGUCCAAGCCCCCUCGCUGGCGCCGGCUGGGCAACAUUCCGAGGGGACCGUCCCCUCGGUAAUGGCGAAUGGGACCCA [C15A U20C] | 0.135 |
| GGCCGGCAUGGUCCGUGCCUCCUCGCUGGCGCCGGCUGGGCAACAUUCCGAGGGGACCGUCCCCUCGGUAAUGGCGAAUGGGACCCA [C15G A16U] | 0.795 |
| GGCCGGCAUGGUCCGAGCCUCCUCGCUGGCGCCGGCUGGGCAACUUUCCGAGGGGACCGUCCCCUCGGUAAUGGCGAAUGGGACCCA [C15G A45U] | 0.594 |
| GGCCGGCAUGGUCCGAGCCUCCUCGCUGGCACCGGCUGGGCAACAUUCCGAGGGGACCGUCCCCUCGGUAAUGGCGAAUGGGACCCA [C15G G31A] | 0.138 |
| GGCCGGCAUGGUCCGAGCCUCCUCGCUGGCGCCGUCUGGGCAACAUUCCGAGGGGACCGUCCCCUCGGUAAUGGCGAAUGGGACCCA [C15G G35U] | 0.0396 |
| GGCCGGCAUGGUCCGAGCCUCCUCGCUGGCGCCGGCUUGGCAACAUUCCGAGGGGACCGUCCCCUCGGUAAUGGCGAAUGGGACCCA [C15G G38U] | 0 |
| GGCCGGCAUGGUCCAAGCCUCCUCGCUGGCGCCGGCUGGGCAACAUUCCGAGGGGACCGUCCCCUCAGUAAUGGCGAAUGGGACCCA [C15A G67A] | 0.499 |
| GGCCGGCAUGGUCCAAGCCUCCUCGCUGGCGCCGUCUGGGCAACAUUCCGAGGGGACCGUCCCCUCGGUAAUGGCGAAUGGGACCCA [C15A G35U] | 0.188 |
| GGCCGGCAUGGUCCAAGCCUCCUCGCUGGCGCCGGCUGGGCAACAUUCCGAGGGGACCGUCCCCUCGGUAAUGGCGAAUGGUACCCA [C15A G82U] | 0.232 |
| GGCCGGCAUGGUCCAAGCCUCCUCGCUGGCGCCGGCUGGGCAACAUUCCGAGAGGACCGUCCCCUCGGUAAUGGCGAAUGGGACCCA [C15A G53A] | 0.866 |
| GGCCGGCAUGGUCCAAGCCUCCUCGCUGGCGCCGGCUGGGCAACAUUCCGAGGGGACCGUCCCCUCGAUAAUGGCGAAUGGGACCCA [C15A G68A] | 0.511 |
| GGCCGGCAUGGUCCAAGCCUCCUCGCUGGCGCCGGCUGGGCAACAUUCCGAGGGGACCGUCCCCUCGCUAAUGGCGAAUGGGACCCA [C15A G68C] | 0.458 |
| GGCCGGCAUGGUCCGAGCCUCCUCGCUGGCGCCGGCUGGGCAACAUUCCGAGGGGACCGUCCCCUCGGUAAUGGCGUAUGGGACCCA [C15G A77U] | 0.158 |
| GGCCGGCAUGGUCCGAGCCUCCUCGCUGGCGCCGGCUGGGCAACAUUCCGAGGGGACCGUCCCCUCGGUAAUGGCGGAUGGGACCCA [C15G A77G] | 0.332 |
| GGCCGGCAUGGUCCAAGCCUCCUCGCUGGCGCCGGCGGGGCAACAUUCCGAGGGGACCGUCCCCUCGGUAAUGGCGAAUGGGACCCA [C15A U37G] | 0.0755 |
| GGCCGGCAUGGUCCGAGCCUCCUCGCUGGCGCCGGCUGGGCAACAUUCCGAGGGGACCGUCCCCUCGGUAAUGGUGAAUGGGACCCA [C15G C75U] | 0.237 |
| GGCCGGCAUGGUCCGAGCCUCCUCGCUGGCGCCGGCUGGGCAACAUUCCGAGGGGACCGUCCCCUCGGUAAUGGCGAAUGGGACCUA [C15G C86U] | 0.791 |
| GGCCGGCAUGGUCCGAUCCUCCUCGCUGGCGCCGGCUGGGCAACAUUCCGAGGGGACCGUCCCCUCGGUAAUGGCGAAUGGGACCCA [C15G G17U] | 0.243 |
| GGCCGGCAUGGUCCGAGCCUCCUCGCUGGCGCCGGCUGGGCAACAUUCCGAGGGGACCGUCCCCUCGGUAAUGGCGAGUGGGACCCA [C15G A78G] | 0 |

| Variant | self-cleavage |
| --- | --- |
| GGCCGGCAUGGUCCAAGCCUCCUCGCUGGCGCCGGCUGGGCAACAUUCCGAGGGGACCGUCCCCUCGGUAAUAGCGAAUGGGACCCA [C15A G73A] | 0.283 |
| GGCCGGCAUGGUCCGAGCCUCCUCACUGGCGCCGGCUGGGCAACAUUCCGAGGGGACCGUCCCCUCGGUAAUGGCGAAUGGGACCCA [C15G G25A] | 0.161 |
| GGCCGGCAUGGUCCGAGCCUCCUCGCUGGCGCCGGCUGGGCAACAUUCCCAGGGGACCGUCCCCUCGGUAAUGGCGAAUGGGACCCA [C15G G50C] | 0.575 |
| GGCCGGCAUGGUCCGAGCCUCCUCGCUGGCGCCGGCUGGGCAACAUUCCGAGGGGACGGUCCCCUCGGUAAUGGCGAAUGGGACCCA [C15G C58G] | 0.612 |
| GGCCGGCAUGGUCCAAGCCUCCUCGCUGGCGCCGGCUGGGCAACAUUCCGAGGGAACCGUCCCCUCGGUAAUGGCGAAUGGGACCCA [C15A G55A] | 0.796 |
| GGCCGGCAUGGUCCGAGCCUCCUCGCUGGCGCCGGCUGGGCAACAUUCCGAGGGGACCGUCCCCUUGGUAAUGGCGAAUGGGACCCA [C15G C66U] | 0.573 |
| GGCCGGCAUGGUCCAAGCCUCCUCGCUGGCGCCUGCUGGGCAACAUUCCGAGGGGACCGUCCCCUCGGUAAUGGCGAAUGGGACCCA [C15A G34U] | 0 |
| GGCCGGCAUGGUCCAAGCCUCCUCGCUGGCGCCCGCUGGGCAACAUUCCGAGGGGACCGUCCCCUCGGUAAUGGCGAAUGGGACCCA [C15A G34C] | 0.256 |
| GGCCGGCAUGGUCCGAGCCUCCUCGCUGGCGCCGGUUGGGCAACAUUCCGAGGGGACCGUCCCCUCGGUAAUGGCGAAUGGGACCCA [C15G C36U] | 0.264 |
| GGCCGGCAUGGUCCGAGCCUCCUCGCUGGCGCCGGCUGGGCAACAUUCCGAGGGGACCGUCCCCUCGGUAAUGGCGAAUGGGACCCA [C15G] | 0.663 |
| GGCCGGCAUGGUCCGAGCCUCCUCGCUGGCGCCGGCUGGCCAACAUUCCGAGGGGACCGUCCCCUCGGUAAUGGCGAAUGGGACCCA [C15G G40C] | 0.271 |
| GGCCGGCAUGGUCCGAGCCUCCUCGCUGGCGCCCGCUGGGCAACAUUCCGAGGGGACCGUCCCCUCGGUAAUGGCGAAUGGGACCCA [C15G G34C] | 0 |
| GGCCGGCAUGGUCCAAGCCUCCUCGCUGGCGCCGGCUGGGCAACAUUCCGAGGGGACCGUCCCCUCGGUAAUGGCGAAUUGGACCCA [C15A G80U] | 0.899 |
| GGCCGGCAUGGUCCAAGCCUCCUCGCUGGCGCCGGCUGGGCAACAUUCCGAGGGGACCGUCCCCUCGGUAAUGGCGAAUCGGACCCA [C15A G80C] | 0.222 |
| GGCCGGCAUGGUCCAAGCCUCCUCGCUGGCGCCGGCUGGGCAACAUUCCGAGGGGACCGUCCCCUCGGUAAUGGCAAAUGGGACCCA [C15A G76A] | 0.712 |
| GGCCGGCAUGGUCCAAGCCUCCUCGCUGGCGCCGGCUGGGCAACAUUCCGAGGGGACCGUCCCCGCGGUAAUGGCGAAUGGGACCCA [C15A U65G] | 0.653 |
| GGCCGGCAUGGUCCGAGCCUCCUCGCUGGCGCCGGCUGGGCAAGAUUCCGAGGGGACCGUCCCCUCGGUAAUGGCGAAUGGGACCCA [C15G C44G] | 0.434 |
| GGCCGGCAUGGUCCGAGCCUCCUCGCUGGCGCCGGCUGGGCAACAUUCUGAGGGGACCGUCCCCUCGGUAAUGGCGAAUGGGACCCA [C15G C49U] | 0.554 |
| GGCCGGCAUGGUCCGAGCCUCCUCGCUGGCGCCGGCUGGGCAACAUUCCGUGGGGACCGUCCCCUCGGUAAUGGCGAAUGGGACCCA [C15G A51U] | 0.475 |
| GGCCGGCAUGGUCCGAGCCUCCUCGCUGGCGCCGGCUGGGCAACAUUCCGAGGGGACCGUCCCUUCGGUAAUGGCGAAUGGGACCCA [C15G C64U] | 1.02 |
